This note sets out measurements from US6001353A, “20α-alpha-hydroxy steroid dehydrogenase related material and methods” (priority 1997, dated 1999).

Series [1] relates to Pregnant Sprague-Dawley rats. The series can be described thus: Anti-reproductive effect in pregnant rats: serum progesterone (RIA) and termination of pregnancy. Type of series: in vivo, rat. Here is the method: Pregnant Sprague-Dawley rats were treated with purified 20α-HSD produced by a bacterial expression system (see Example 1) to assess the effect of the enzyme on (1) progesterone levels and (2) the possible termination of pregnancy. More particularly, animals were divided into two treatment groups (7 rats per group: 6 receiving treatment, 1 control) and were injected (intraperitoneally) with the purified recombinant 20α-HSD and an eqimolar dose of NADPH. Injections were administered on day 8 of pregnancy and continued for 72 hours.
Group 1 received intraperitoneal injections of the purified 20α-HSD (167 μg with an equimolar dose of NADPH) every 4 hours, continuing for 72 hours. Group 2 received intraperitoneal injections of the purified 20α-HSD (250 μg with an equimolar dose of NADPH) every 6 hours, continuing for 72 hours. The control treatment groups received an equal amount of GST alone with an eqimolar dose of NADPH. Blood samples were collected every 12 hours via jugular veins. Serum progesterone levels were determined by standard radioimmunoassay techniques [Gibori et al., Endocrinology 100:1483-1495 (1977)].

The subject of another series is protein kinase A (PKA). The series can be described thus: In vitro kinase assay, phosphorylation of 20α-HSD by PKA. Type of series: biochemical. Conditions: bacterially expressed enzyme, [γ-32P]ATP. The procedure:
(§1) Purified recombinant 20α-HSD (of the bacterial expression system) was incubated with various protein kinases after an initial incubation with alkaline phosphatase (to ensure that the protein was in a non-phosphorylated state) and subsequently assayed for 20α-HSD activity.
(§2) More particularly, purified bacterially expressed recombinant 20α-HSDwas first incubated in […] Tris-HCl (pH 8), 1 mM MgCl2, 1 mg/ml BSA, 0.5 mM dithiothreitol, and 60 U alkaline phosphatase coupled to agarose beads for 30 min. at 30° C. After centrifugation, the supernatant containing 20α-HSD was used as a substrate in various in vitro kinase assays. The protein kinase A (PKA), protein kinase C (PKC) and insulin receptor-associated tyrosine kinase activities were measured as described previously [Raz et al., Biochem. J. 269:603-607 (1990), Azhar et al., Am J. Physiol, 260:E1-E7 (1991)]. src kinase (p60^src) activity was assayed as described by Simonson and Herman [Simonson et al., J. Biol Chem., 268:9347-9357 (1993)]. […]

The nature of series [2]: Cyclooxygenase assay: conversion of [3H]arachidonic acid. The following applies: purified preparations from either expression system. Type of series: biochemical. The procedure: (§3) To test for prostaglandin endoperoxide synthase type catalytic activity of recombinant 20α-HSD, both cyclooxygenase activity (which converts arachidonic acid into the hydroperoxide, PGG2) and peroxidase activity (which reduces PGG2 and other hydroperoxides to the corresponding alcohol, such as PGH2) were measured. The cyclooxygenase assay was performed by following the conversion of [^3 H] arachidonic acid [Dupont-New England Nuclear Research Products, Boston, Mass.] to [^3 H]PHG2 and [^3 H]PHE2 [Mitchell et al. Proc. Natl. Acad. Sci. USA 90:11693-11697, 1994]. Peroxidase activity was measured by monitoring the oxidation of N,N,N',N', tetramethyl-p-phenylenediamine at 611 nm [Iwata et al., Arch. Biochem. Biophys. 282:70-77 (1990)].

The next series relates to src kinase (p60^src). In words: In vitro kinase assay, phosphorylation of 20α-HSD by src kinase. The following applies: bacterially expressed enzyme. Type of series: biochemical. The procedure: as §1
(§4) More particularly, purified bacterially expressed recombinant 20α-HSDwas first incubated in […] Tris-HCl (pH 8), 1 mM MgCl2, 1 mg/ml BSA, 0.5 mM dithiothreitol, and 60 U alkaline phosphatase coupled to agarose beads for 30 min. at 30° C. After centrifugation, the supernatant containing 20α-HSD was used as a substrate in various in vitro kinase assays. The protein kinase A (PKA), protein kinase C (PKC) and insulin receptor-associated tyrosine kinase activities were measured as described previously [Raz et al., Biochem. J. 269:603-607 (1990), Azhar et al., Am J. Physiol, 260:E1-E7 (1991)]. src kinase (p60^src) activity was assayed as described by Simonson and Herman [Simonson et al., J. Biol Chem., 268:9347-9357 (1993)].

The subject of series [3] is insulin receptor-associated tyrosine kinase. In words: In vitro kinase assay, phosphorylation of 20α-HSD by insulin receptor tyrosine kinase. Type of series: biochemical. The following applies: bacterially expressed enzyme. The procedure:
as §1, §4

A short description of series [4]: Peroxidase activity: oxidation of tetramethyl-p-phenylenediamine at 611 nm. Type of series: biochemical. The following applies: purified preparations from either expression system. Here is the method:
as §3

Another series addresses T1, recombinant 20α-HSD (Rattus norvegicus, UniProt P51652).
T1 sequence (P51652 1-323): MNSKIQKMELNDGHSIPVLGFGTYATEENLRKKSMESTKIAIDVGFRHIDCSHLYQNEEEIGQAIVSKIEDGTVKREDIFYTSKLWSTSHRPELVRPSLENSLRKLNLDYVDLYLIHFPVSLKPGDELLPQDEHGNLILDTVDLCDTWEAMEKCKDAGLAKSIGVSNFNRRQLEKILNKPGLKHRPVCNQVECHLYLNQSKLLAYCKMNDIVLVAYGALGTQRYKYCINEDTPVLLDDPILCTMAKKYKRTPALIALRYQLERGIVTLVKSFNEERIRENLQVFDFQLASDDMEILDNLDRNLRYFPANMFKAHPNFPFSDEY
The series can be described thus: Catalytic activity of phosphorylated versus non-phosphorylated 20α-HSD, radiochemical. Type of series: biochemical. More on the design: a DNA fragment of 1.2 Kb containing the entire coding region of 20α-HSD; GST (removed with thrombin) (N, cleaved yes); made in house; host or cells: E. coli DH5α (pGEX-4T-2). Here is the method:
Enzyme activity of the recombinant 20α-HSD was determined by the rate of conversion of [1-2^3 H]-20α-hydroxy-pregn-4-ene-3-one (20α-hydroxprogesterone) to [1,2^3 H]progesterone in the presence of NADPH as described by Jones & Hsueh [J. Biol. Chem. 256:1248-1254 (1981)]. Enzyme activity was measured in this manner due to the fact that in an in vitro setting the reaction may be reversed, i.e. conversion of 20α-hydroxyprogesterone to progesterone. The assay mixtures (0.05 ml) contained 100 μM [1,2^3 H]hydroxyprogesterone [Dupont-New England Nuclear Research Products, Boston Mass.] […] Following incubation at 37° C. for 30 minutes, the [^3 H]progesterone content of each sample was determined after isolation by thin layer chromatography isolation. One unit of enzyme activity is defined as that amount of enzyme catalyzing the formation of 1 nmol of [^3 H]progesterone/minute from [1,2^3 H]hydroxyprogesterone. Specific activity is expressed as units/min/mg protein. The protein concentration was determined by the Bradford method using bovine serum albumin [Sigma Chemical Co, St. Louis, Mo.] as the standard [Bradford, Anal. Biochem. 72:248-254 (1976)]. […] Acta. 799:51-58 (1984); Noda et al., Biochim Biophys. Acta. 1079:112-118 (1991)]. […]

A further series concerns purified rat liver PKC. The series can be described thus: In vitro kinase assay, phosphorylation of 20α-HSD by PKC. Type of series: biochemical. Conditions: bacterially expressed enzyme, [γ-32P]ATP. Here is the method: as §1, §2
The mark [5] stands for this setting: Group 1 protocol, laparoscopy at 72 hour end point.

B1: 20α-hydroxysteroid dehydrogenase (protein)
chain: T1 sequence (P51652 1-323)
B1: the “time to significant decline of serum progesterone levels” value in series [1] (Group 1: 167 μg i.p. every 4 hours) was at most 48 h; in series [1] (Group 2: 250 μg i.p. every 6 hours) it was 60 h. In series [1] (setting [5]), the animals aborted totally turned out to be 5 animals. In series [1] (setting [5]), this molecule showed an animals partially aborting of 2 animals. Moreover, in series [1] (pregnant rats, i.p. with equimolar NADPH from day 8 of pregnancy), the “time to termination of pregnancy” value is at most 72 h. In addition, the circulating progesterone entry in series [1] (pregnant rats, i.p. with equimolar NADPH from day 8 of pregnancy, bacterially expressed enzyme) is given as “marked decrease”. Further, the “phosphorylation of 20α-HSD by PKA” value with protein kinase A (PKA) is “readily phosphorylated”. In addition, the cyclooxygenase activity result in series [2] is on record as “Neither peroxidase not cyclooxygenase activity was detected”. Besides, in the series with src kinase (p60^src), the “phosphorylation of 20α-HSD by src kinase” value is “failed to phosphorylate”. In series [3], the “phosphorylation of 20α-HSD by insulin-receptor-associated tyrosine kinase” value is “failed to phosphorylate”. Further, the peroxidase activity entry in series [4] was “Neither peroxidase not cyclooxygenase activity was detected”. The “20α-HSD activity after phosphorylation with PKA” value with recombinant 20α-HSD is “not significantly affected”. Moreover, the “20α-HSD activity after phosphorylation with PKC” value with recombinant 20α-HSD (ATP-Mg2+, diacylglycerol, phosphatidylserine) is given as “unaffected”. In addition, in the series with purified rat liver PKC, the “phosphorylation of 20α-HSD by PKC” value is given as “readily phosphorylated”.
